Data: US6936431 (dated 2005)
Where “and” joins values, the source holds several entries; their conditions need not be identical. Equal values may be shown once. Read-outs that look alike come from different tables or passages of the source.

What was measured:
[1] = molecular target: T1, rat brain farnesyl:protein transferase (rat, UniProt Q04631 2-377; Q02293 1-437); test: farnesyltransferase activity inhibition; FIG. 10C
[2] = molecular target: T1, rat brain farnesyl:protein transferase; test: farnesyltransferase activity inhibition; FIG. 10B
[3] = molecular target: T1, rat brain farnesyl:protein transferase; test: farnesyltransferase activity inhibition; FIG. 12A
[4] = molecular target: T1, rat brain farnesyl:protein transferase; test: farnesyltransferase activity inhibition; FIG. 12B
[5] = molecular target: T1, rat brain farnesyl:protein transferase; test: farnesyltransferase activity inhibition; FIG. 10A
[6] = molecular target: T1, rat brain farnesyl:protein transferase
[7] = molecular target: T1, rat brain farnesyl:protein transferase; test: farnesyltransferase activity inhibition; FIG. 11

B1: CLIM (peptide)
peptide: CLIM
[1]
  Ki: 0.08 µM

B2: CVIM with lysine at the A2 position (CVKM) (peptide)
peptide: CVKM
[2]
  Ki: > 30 µM

B3: CVFM (peptide)
peptide: CVFM
[3]
  Ki: 0.01 µM
[4]
  Ki: 0.035 µM

B4: CVIL (COOH-terminal tetrapeptide of rap2b) (peptide)
peptide: CVIL
[1]
  Ki: 10.5 µM

B5: CVLM (peptide)
peptide: CVLM
[1]
  Ki: 0.2 µM

B6: CVIM with lysine at the X position (CVIK) (peptide)
peptide: CVIK
[2]
  Ki: > 30 µM

B7: CVIA (COOH-terminal tetrapeptide of a-Mating factor) (peptide)
peptide: CVIA
[5]
  Ki: 4 µM

B8: CVIM (COOH-terminal tetrapeptide of p21^K-rasB) (peptide)
peptide: CVIM
[6]
  Ki: 0.35 µM and 0.2 µM

B9: CFIM (peptide)
peptide: CFIM
[7]
  Ki: 0.5 µM

B10: CVAM (peptide)
peptide: CVAM
[5]
  Ki: 6 µM
